Article PMC4133371

Molecular target: endogenous E-cadherin (dog (endogenous in MDCK))
Assay: co-IP; endogenous E-cadherin collected by antibodies to its extracellular part from lysates of MDCK cells expressing DsRed, DECT, DECTSA, DECTN or DECTC; immunoblot with anti-β-catenin or anti-plakoglobin; bands quantified with NIH Image as percent of DsRed cells

Chain of endogenous E-cadherin (dog (endogenous in MDCK)) (F1PAA9 27-885): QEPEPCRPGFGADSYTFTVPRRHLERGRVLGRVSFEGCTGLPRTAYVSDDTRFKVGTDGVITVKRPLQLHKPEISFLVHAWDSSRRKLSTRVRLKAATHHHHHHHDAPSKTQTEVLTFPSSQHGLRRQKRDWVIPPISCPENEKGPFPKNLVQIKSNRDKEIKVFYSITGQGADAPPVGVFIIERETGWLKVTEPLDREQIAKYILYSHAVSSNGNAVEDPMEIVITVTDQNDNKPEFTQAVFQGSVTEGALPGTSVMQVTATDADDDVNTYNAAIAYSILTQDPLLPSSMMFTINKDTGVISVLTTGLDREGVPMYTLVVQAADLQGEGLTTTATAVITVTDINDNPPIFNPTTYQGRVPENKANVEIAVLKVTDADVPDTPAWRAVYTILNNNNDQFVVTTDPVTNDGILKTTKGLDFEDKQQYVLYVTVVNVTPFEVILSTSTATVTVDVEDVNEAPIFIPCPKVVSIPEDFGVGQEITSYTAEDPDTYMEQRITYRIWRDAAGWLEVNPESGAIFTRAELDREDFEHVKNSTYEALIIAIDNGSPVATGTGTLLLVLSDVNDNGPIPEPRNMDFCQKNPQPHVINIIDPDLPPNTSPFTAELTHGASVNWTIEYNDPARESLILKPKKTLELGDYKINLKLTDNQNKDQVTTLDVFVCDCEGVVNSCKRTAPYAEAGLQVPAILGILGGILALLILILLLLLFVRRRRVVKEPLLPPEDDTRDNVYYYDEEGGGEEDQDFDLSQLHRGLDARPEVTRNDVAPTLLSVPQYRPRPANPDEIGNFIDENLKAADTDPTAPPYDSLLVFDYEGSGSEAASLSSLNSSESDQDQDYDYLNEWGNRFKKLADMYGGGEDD

| percent co-precipitated with endogenous E-cadherin relative to DsRed cells (cells expressing DECT) | percent co-precipitated with endogenous E-cadherin relative to DsRed cells (cells expressing DECTC) | percent co-precipitated with endogenous E-cadherin relative to DsRed cells (cells expressing DECTN) | percent co-precipitated with endogenous E-cadherin relative to DsRed cells (cells expressing DsRed) | Molecule |
| --- | --- | --- | --- | --- |
| 33% | 187% | 100% | 100% | plakoglobin (natural protein) |
| 4% | 24% | 102% | 100% | β-catenin (natural protein) MATQADLMELDMAMEPDRKAAVSHWQQQSYLDSGIHSGATTTAPSLSGKGNPEEEDVDTTQVLYEWEQGFSQSFTQEQVADIDGQYAMTRAQRVRAAMFPETLDEGMQIPSTQFDAAHPTNVQRLAEPSQMLKHAVVNLINYQDDAELATRAIPELTKLLNDEDQVVVNKAAVMVHQLSKKEASRHAIMRSPQMVSAIVRTMQNTNDVETARCTAGTLHNLSHHREGLLAIFKSGGIPALVKMLGSPVDSVLFYAITTLHNLLLHQEGAKMAVRLAGGLQKMVALLNKTNVKFLAITTDCLQILAYGNQESKLIILASGGPQALVNIMRTYTYEKLLWTTSRVLKVLSVCSSNKPAIVEAGGMQALGLHLTDPSQRLVQNCLWTLRNLSDAATKQEGMEGLLGTLVQLLGSDDINVVTCAAGILSNLTCNNYKNKMMVCQVGGIEALVRTVLRAGDREDITEPAICALRHLTSRHQEAEMAQNAVRLHYGLPVVVKLLHPPSHWPLIKATVGLIRNLALCPANHAPLREQGAIPRLVQLLVRAHQDTQRRTSMGGTQQQFVEGVRMEEIVEGCTGALHILARDVHNRIVIRGLNTIPLFVQLLYSPIENIQRVAAGVLCELAQDKEAAEAIEAEGATAPLTELLHSRNEGVATYAAAVLFRMSEDKPQDYKKRLSVELTSSLFRTEPMAWNETADLGLDIGAQGEPLGYRQDDPSYRSFHSGGYGQDALGMDPMMEHEMGGHHPGADYPVDGLPDLGHAQDLMDGLPPGDSNQLAWFDTDL |
